These results are taken from patent US20230212587A1, “Mutant Hydroxyphenylpyruvate Dioxygenase Polypeptide, Encoding Gene Thereof and Use Therefor” (Beijing Dabeinong Biotechnology Co., Ltd., priority 2019, published 2023).

The test system of experiment [1] is Arabidopsis thaliana T1 plants. As to the kind of experiment: Topramezone tolerance of transgenic Arabidopsis thaliana T1 plants (pesticide damage grade by bleached leaf area, score, resistance evaluation). It counts as in vivo. The settings on record: for Classification and statistics of pesticide damage grade Grade 0 / Classification and statistics of pesticide damage grade Grade 1 / Classification and statistics of pesticide damage grade Grade 2 / Classification and statistics of pesticide damage grade Grade 3 / Classification and statistics of the grade of pesticide damage Grade 0 / Classification and statistics of the grade of pesticide damage Grade 1 / Classification and statistics of the grade of pesticide damage Grade 2 / Classification and statistics of the grade of pesticide damage Grade 3: number of plants (of 16) in this grade; for Classification and statistics of pesticide damage grade Grade 0 / Classification and statistics of pesticide damage grade Grade 1 / Classification and statistics of pesticide damage grade Grade 2 / Classification and statistics of pesticide damage grade Grade 3 / Scores / Resistance evaluation / Classification and statistics of the grade of pesticide damage Grade 0 / Classification and statistics of the grade of pesticide damage Grade 1 / Classification and statistics of the grade of pesticide damage Grade 2 / Classification and statistics of the grade of pesticide damage Grade 3: 7 DAT; for Scores: score for pesticide damage 0-100; for Grade 0 (number of plants) / Grade 1 (number of plants) / Grade 2 (number of plants) / Grade 3 (number of plants) / Resistance Grade / score: mutation combination, Table 8. The method, boiled down:
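Eighteen days after sowing, wild-type and HPPD-transgenic T1 Arabidopsis receive a topramezone spray at 1×, 2× or 4× field rate (25–100 g ai/ha) or water. Seven days later each plant is graded by its proportion of bleached leaf area.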

The test system of a further experiment is rice T1 plants. The experiment can be described thus: Herbicide tolerance of transgenic rice T1 plants to topramezone. It counts as in vivo. As to conditions: topramezone 50 and 100 g ai/ha, 7 DAT, compared to wild-type. An excerpt: The Arabidopsisthaliana T1 plants into which the AsHPPDm-F372A-02 nucleotide sequence was introduced, Arabidopsis thaliana T1 plants into which the AsHPPD-02 nucleotide sequence was introduced and wild-type Arabidopsisthaliana plants (18 days after sowing) were sprayed with topramezone at four different concentrations, i.e., 25 g ai/ha (one-fold field concentration, 1×), 50 g ai/ha (two-fold field concentration, 2×), 100 g ai/ha (four-fold field concentration, 4×) and 0 g ai/ha (water, 0×) to determine the tolerance of Arabidopsisthaliana to the herbicide. The degree of damage caused by the herbicide was measured for each plant according to the proportion of bleached leaf area (the proportion of bleached leaf area=bleached leaf area/total leaf area×100%) 7 days after spraying (7 DAT): the case where there is basically no bleached phenotype is defined as grade 0, the case where the proportion of bleached leaf area is less than 50% is defined as grade 1,the case where the proportion of bleached leaf area is more than 50% is defined as grade 2, and the case where the proportion of bleached leaf area is 100% grade is defined as grade 3.
The rice T1 plants into which the AsHPPDm-F372A-02 nucleotide sequence was introduced, rice T1 plants into which the AsHPPDm-F372A-A110 nucleotide sequence was introduced, rice T1 plants into which the ZmHPPDm-F372A-02 nucleotide sequence was introduced, rice T1 plants into which the PfHPPDm-F372A-02 nucleotide sequence was introduced and wild-type rice plants (V3-V4 at seedling stage) were sprayed with topramezone at two different concentrations respectively, i.e. 50 g ai/ha (2-fold field concentration, 2 ×) and 100 g ai/ha (4-fold field concentration, 4 ×) to detect the herbicide tolerance of rice plants. According to the method in point 6 of Example 1, after 7 days of spraying (7 DAT), the damage degree of each plant by the herbicide was statistically analyzed, and the scoring and resistance evaluation were carried out accordingly. The rice T1 plants into which AsHPPDm-F372A-02 nucleotide sequence was introduced were of two strains in total (S12 and S13), rice T1 plants into which AsHPPDm-F372A-A1 10 nucleotide sequence was introduced were of two strains in total (S14 and S15), rice T1 plants into which ZmHPPDm-F372A-02 nucleotide sequence was introduced were of two strains in total (S16 and S17), rice T1 plants into which PfHPPDm-F372A-02 nucleotide sequence was introduced were of two strains in total (S18 and S19), and the wild-type rice plants were of one strain in total (CK2); and 8 plants were selected from each strain and tested.

The mark [2] stands for this setting: HPPDs from different species, topramezone 25 g ai/ha (1x).
Setting [3] is: HPPDs from different species, topramezone 100 g ai/ha (4x).

B1: ZmHPPDm-F372A-02: Zea mays HPPD mutant F372A, SEQ ID NO: 20 (protein)
chain: MPPTPTAAAAGAAVAAASAAEQAAFRLVGHRNFVRFNPRSDRFHTLAFHHVELWCADAASAAGRFSFGLGAPLAARSDLSTGNSAHASLLLRSGSLSFLFTAPYAHGADAATAALPSFSAAAARRFAADHGLAVRAVALRVADAEEAFRTSVAAGARPAFGPVDLGRGFRLAEVELYGDVVLRYVSYPDGAAGEPFLPGFEGVASPGAADYGLSRFDHIVGNVPELAPAAAYFAGFTGFHEFAEFTTEDVGTAESGLNSMVLANNSENVLLPLNEPVHGTKRRSQIQTFLDHHGGPGVQHMALASDDVLRTLREMQARSAMGGFEFMAPPTSDYYDGVRRRAGDVLTEAQIKECQELGVLVDRDDQGVLLQIAPKPVGDRPTLFLEIIQRIGCMERDEKGQEYQKGGCGGFGKGNFSQLFKSIEDYEKSLEAMQAAAAATAQGS
modifications: ZmHPPDm-F372A Amino Acid Sequence
As to B1, in experiment [1] (setting [2]), the “Classification and statistics of pesticide damage grade Grade 0” value was found to be 16; the “Classification and statistics of pesticide damage grade Grade 1” value is given as 0; the “Classification and statistics of pesticide damage grade Grade 2” value is recorded as 0; the “Classification and statistics of pesticide damage grade Grade 3” value is 0. In experiment [1] (setting [2]), the Scores was found to be 0 and the Resistance evaluation entry was “highly resistant (highly resistant plants (scores 0-15))”. In experiment [1] (setting [3]), the “Classification and statistics of pesticide damage grade Grade 0” value was 4; the “Classification and statistics of pesticide damage grade Grade 1” value was 12; the “Classification and statistics of pesticide damage grade Grade 2” value is recorded as 0; the “Classification and statistics of pesticide damage grade Grade 3” value was 0. In experiment [1] (setting [3]), the Scores turned out to be 25 and the Resistance evaluation entry is “moderately resistant (moderately resistant plants (scores 16-33))”. For the same molecule, the “tolerance to topramezone, in words” value in the experiment on rice T1 plants is listed as “higher tolerance”.

B2: PfHPPDm-F372A-02: Pseudomonas fluorescens HPPD mutant F372A, SEQ ID NO: 30 (protein)
chain: MADLYENPMGLMGFEFIEFASPTPGTLEPIFEIMGFTKVATHRSKNVHLYRQGEINLILNNEPNSIASYFAAEHGPSVCGMAFRVKDSQKAYNRALELGAQPIHIDTGPMELNLPAIKGIGGAPLYLIDRFGEGSSIYDIDFVYLEGVERNPVGAGLKVIDHLTHNVYRGRMVYWANFYEKLFNFREARYFDIKGEYTGLTSKAMSAPDGMIRIPLNEESSKGAGQIEEFLMQFNGEGIQHVAFLTDDLVKTWDALKKIGMRFMTAPPDTYYEMLEGRLPDHGEPVDQLQARGILLDGSSVEGDKRLLLQIASETLMGPVFFEFIQRKGDDGFGEGNFKALFESIERDQVRRGVLTAD
modifications: PfHPPDm-F372A Amino Acid Sequence
As for B2, in experiment [1] (setting [2]), the “Classification and statistics of pesticide damage grade Grade 0” value came to 16; the “Classification and statistics of pesticide damage grade Grade 1” value was 0; the “Classification and statistics of pesticide damage grade Grade 2” value came out at 0; the “Classification and statistics of pesticide damage grade Grade 3” value is 0. For the same molecule, in experiment [1] (setting [2]), the Scores is listed as 0 and the Resistance evaluation result is recorded as “highly resistant (highly resistant plants (scores 0-15))”. Also, in experiment [1] (setting [3]), the “Classification and statistics of pesticide damage grade Grade 0” value was determined as 12; the “Classification and statistics of pesticide damage grade Grade 1” value is recorded as 4; the “Classification and statistics of pesticide damage grade Grade 2” value was 0; the “Classification and statistics of pesticide damage grade Grade 3” value was 0. Also, in experiment [1] (setting [3]), the Scores came out at 8 and the Resistance evaluation entry is recorded as “highly resistant (highly resistant plants (scores 0-15))”. In experiment [1] (topramezone 25 g ai/ha), the “Grade 0 (number of plants)” value stood at 20, the “Grade 1 (number of plants)” value is recorded as 0, the “Grade 2 (number of plants)” value was found to be 0 and the “Grade 3 (number of plants)” value was found to be 0. Moreover, in experiment [1] (topramezone 25 g ai/ha), the “Resistance Grade” value is “Highly resistant” and the score was 0. Further, in experiment [1] (topramezone 100 g ai/ha), the “Grade 0 (number of plants)” value came to 16, the “Grade 1 (number of plants)” value is 4, the “Grade 2 (number of plants)” value came out at 0 and the “Grade 3 (number of plants)” value worked out at 0. Besides, in experiment [1] (topramezone 100 g ai/ha), the “Resistance Grade” value is on record as “Highly resistant” and the score was 7. For the same molecule, the “tolerance to topramezone, in words” value with rice T1 plants was “higher tolerance”.

B3: AsHPPDm-F372A-02: Avena sativa HPPD mutant F372A, SEQ ID NO: 4; gene SEQ ID NO: 6 (protein)
chain: MPPTPATATGAAAAAVTPEHAARSFPRVVRVNPRSDRFPVLSFHHVELWCADAASAAGRFSFALGAPLAARSDLSTGNSAHASLLLRSGALAFLFTAPYAPPPQEAATAAATASIPSFSADAARTFAAAHGLAVRSVGVRVADAAEAFRVSVAGGARPAFAPADLGHGFGLAEVELYGDVVLRFVSYPDETDLPFLPGFERVSSPGAVDYGLTRFDHVVGNVPEMAPVIDYMKGFLGFHEFAEFTAEDVGTTESGLNSVVLANNSEAVLLPLNEPVHGTKRRSQIQTYLEYHGGPGVQHIALASNDVLRTLREMRARTPMGGFEFMAPPQAKYYEGVRRIAGDVLSEEQIKECQELGVLVDRDDQGVLLQIATKPVGDRPTFFLEMIQRIGCMEKDEVGQEYQKGGCGGFGKGNFSELFKSIEDYEKSLEVKQSVVAQKS
modifications: AsHPPDm-F372A Amido Acid Sequence
Regarding B3, the “resistance evaluation stated in the text” value in experiment [1] (Arabidopsis thaliana T1 plants sprayed with topramezone, all tested concentrations) was “highly resistant (highly resistant plants (scores 0-15))”. Also, in experiment [1] (topramezone 25 g ai/ha (1x)), the “Classification and statistics of the grade of pesticide damage Grade 0” value stood at 16; the “Classification and statistics of the grade of pesticide damage Grade 1” value was found to be 0; the “Classification and statistics of the grade of pesticide damage Grade 2” value was determined as 0; the “Classification and statistics of the grade of pesticide damage Grade 3” value is on record as 0. Also, in experiment [1] (topramezone 25 g ai/ha (1x)), the Scores was 0 and the Resistance evaluation entry is on record as “highly resistant (highly resistant plants (scores 0-15))”. In experiment [1] (topramezone 50 g ai/ha (2x)), the “Classification and statistics of the grade of pesticide damage Grade 0” value is given as 16; the “Classification and statistics of the grade of pesticide damage Grade 1” value is listed as 0; the “Classification and statistics of the grade of pesticide damage Grade 2” value worked out at 0; the “Classification and statistics of the grade of pesticide damage Grade 3” value was determined as 0. In experiment [1] (topramezone 50 g ai/ha (2x)), the Scores came out at 0 and the Resistance evaluation result is listed as “highly resistant (highly resistant plants (scores 0-15))”. Also, in experiment [1] (topramezone 100 g ai/ha (4x)), the “Classification and statistics of the grade of pesticide damage Grade 0” value is listed as 16; the “Classification and statistics of the grade of pesticide damage Grade 1” value was 0; the “Classification and statistics of the grade of pesticide damage Grade 2” value was determined as 0; the “Classification and statistics of the grade of pesticide damage Grade 3” value is listed as 0. For the same molecule, in experiment [1] (topramezone 100 g ai/ha (4x)), the Scores is reported as 0 and the Resistance evaluation entry was “highly resistant (highly resistant plants (scores 0-15))”. Further, in experiment [1] (topramezone 25 g ai/ha), the “Grade 0 (number of plants)” value worked out at 20, the “Grade 1 (number of plants)” value came out at 0, the “Grade 2 (number of plants)” value is given as 0 and the “Grade 3 (number of plants)” value is listed as 0. In experiment [1] (topramezone 25 g ai/ha), the “Resistance Grade” value is “Highly resistant” and the score worked out at 0. Moreover, in experiment [1] (topramezone 100 g ai/ha), the “Grade 0 (number of plants)” value is 20, the “Grade 1 (number of plants)” value stood at 0, the “Grade 2 (number of plants)” value came to 0 and the “Grade 3 (number of plants)” value stood at 0. For the same molecule, in experiment [1] (topramezone 100 g ai/ha), the “Resistance Grade” value was “Highly resistant” and the score was determined as 0. Moreover, the “tolerance to topramezone, in words” value with rice T1 plants is given as “higher tolerance”.
